Results: US20190083615A1 (Merck Sharp & Dohme, published 2019)

Molecular target: T1, human LAG3 (Lymphocyte Activation Gene-3) expressed on cells (human, UniProt P18627 23-525)
T1 sequence: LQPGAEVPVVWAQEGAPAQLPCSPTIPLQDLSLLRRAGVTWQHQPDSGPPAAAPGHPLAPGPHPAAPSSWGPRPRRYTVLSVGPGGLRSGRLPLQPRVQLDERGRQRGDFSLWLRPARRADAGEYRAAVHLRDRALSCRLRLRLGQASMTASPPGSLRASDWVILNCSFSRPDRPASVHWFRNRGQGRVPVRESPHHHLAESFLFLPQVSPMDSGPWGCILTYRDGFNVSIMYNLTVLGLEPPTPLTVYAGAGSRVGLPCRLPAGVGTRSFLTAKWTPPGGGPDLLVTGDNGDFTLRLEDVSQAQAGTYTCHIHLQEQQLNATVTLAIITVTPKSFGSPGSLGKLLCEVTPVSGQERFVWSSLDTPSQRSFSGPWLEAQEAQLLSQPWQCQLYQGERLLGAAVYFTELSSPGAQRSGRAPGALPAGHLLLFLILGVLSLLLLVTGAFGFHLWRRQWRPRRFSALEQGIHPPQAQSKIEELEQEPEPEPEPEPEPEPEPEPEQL
Assay: cell-based or functional assay

B1: Ab6: humanized light chain 45AGX Humanized x[LAG3_H] mAb (LB145.22D2.E1.D1 (VL3)) Kappa (PX) and humanized heavy chain 73AHD Humanized x[LAG3_H] mAb … (antibody)
heavy: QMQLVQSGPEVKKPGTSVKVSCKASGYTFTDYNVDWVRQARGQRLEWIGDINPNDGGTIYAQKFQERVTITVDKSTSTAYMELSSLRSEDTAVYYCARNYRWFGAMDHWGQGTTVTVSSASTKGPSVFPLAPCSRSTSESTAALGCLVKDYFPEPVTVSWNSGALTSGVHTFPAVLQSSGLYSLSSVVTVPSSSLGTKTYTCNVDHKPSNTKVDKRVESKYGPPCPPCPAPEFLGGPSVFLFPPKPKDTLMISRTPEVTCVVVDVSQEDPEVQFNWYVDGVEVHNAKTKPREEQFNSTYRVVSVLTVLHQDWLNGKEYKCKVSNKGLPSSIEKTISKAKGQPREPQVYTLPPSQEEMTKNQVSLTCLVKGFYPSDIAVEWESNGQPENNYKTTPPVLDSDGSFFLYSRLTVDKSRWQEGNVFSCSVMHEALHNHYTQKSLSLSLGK
light: DIVMTQTPLSLSVTPGQPASISCKASQSLDYEGDSDMNWYLQKPGQPPQLLIYGASNLESGVPDRFSGSGSGTDFTLKISRVEAEDVGVYYCQQSTEDPRTFGGGTKVEIKRTVAAPSVFIFPPSDEQLKSGTASVVCLLNNFYPREAKVQWKVDNALQSGNSQESVTEQDSKDSTYSLSSTLTLSKADYEKHKVYACEVTHQGLSSPVTKSFNRGEC
notes: Humanized 22D2 N55D, IgG4 S228P/kappa; also called Hu22D2 VH6/VL3 N55D (Ab 6); hu22D2 VH6/VL3 N55D
- IL-2 production by SEB-stimulated PBMC in combination with anti-PD1, fold over anti-PD-1 alone plus isotype control: 1.45 fold
- IL-2 production by SEB-stimulated PBMC, fold over isotype control: 1.54 fold
